Laboratory results published in paper PMC4466810 (2015).

Target: T1, VEGF-A (VEGF165) (Homo sapiens, UniProt P15692)
T1 chain: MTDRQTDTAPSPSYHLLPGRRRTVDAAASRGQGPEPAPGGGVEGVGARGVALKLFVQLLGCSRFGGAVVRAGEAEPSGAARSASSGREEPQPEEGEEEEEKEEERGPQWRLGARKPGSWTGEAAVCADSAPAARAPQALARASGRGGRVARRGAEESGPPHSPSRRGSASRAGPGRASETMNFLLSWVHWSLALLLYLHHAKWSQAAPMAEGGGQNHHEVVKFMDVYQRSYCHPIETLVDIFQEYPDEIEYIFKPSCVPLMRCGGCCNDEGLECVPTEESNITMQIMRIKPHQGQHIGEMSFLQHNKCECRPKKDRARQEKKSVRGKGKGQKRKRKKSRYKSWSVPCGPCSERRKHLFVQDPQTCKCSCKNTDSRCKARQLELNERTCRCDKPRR
Experiment: equilibrium binding assay (ELISA of unbound blocker)

B1: HB-002.1 (VEGFR1 D2-Fc fusion) 129-228 (protein)
chain: SDTGRPFVEMYSEIPEIIHMTEGRELVIPCRVTSPNITVTLKKFPLDTLIPDGKRIIWDSRKGFIISNATYKEIGLLTCEATVNGHLYKTNYLTHRQTNT
modifications: fused to human IgG1 Fc
**Q.** B1 was tested. Which Kd did it give?
**A.** Its Kd is 180 pM.
